± gives the standard deviation of the averaged measurements. Bounds are passed on as bounds.

The text below walks through data of the supplement of paper PMC11246515.

A short description of the series: total protein half-life in vivo (active degradation + dilution); higher = more stable protein.
The mark [1] stands for this setting: E. coli NCM3722 delta-clpP delta-lon delta-hslV, growth: N-lim chemostat, doubling time 6 h.
The mark [2] stands for this setting: E. coli NCM3722 delta-clpP, growth: N-lim chemostat, doubling time 6 h.
[3] abbreviates: E. coli NCM3722 delta-hslV, growth: N-lim chemostat, doubling time 6 h.
The mark [4] stands for this setting: E. coli NCM3722 delta-lon, growth: N-lim chemostat, doubling time 6 h.
Setting [5] is: E. coli NCM3722 delta-smpB, growth: N-lim chemostat, doubling time 6 h.
Setting [6] is: wild type E. coli NCM3722, growth: C-lim chemostat, doubling time 3 h.
[7] abbreviates: wild type E. coli NCM3722, growth: C-lim chemostat, doubling time 6 h.
Where [8] appears, read: wild type E. coli NCM3722, growth: C-lim chemostat, doubling time 12 h.
Where [9] appears, read: wild type E. coli NCM3722, growth: N-lim chemostat, doubling time 6 h.
Setting [10] is: wild type E. coli NCM3722, growth: N-lim chemostat, doubling time 12 h.
[11] abbreviates: wild type E. coli NCM3722, growth: P-lim chemostat, doubling time 6 h.
[12] abbreviates: wild type E. coli NCM3722, growth: P-lim chemostat, doubling time 12 h.

As for “MKPVTLYDVAEYAGVSYQTVSRVVNQASHVSAKTREKVEAAMAELNYIPNRVAQQLAGKQSLLIGVATSSLALHAPSQIVAAIKSRADQLGASVVVSMVERSGVEACKAAVHNLLAQRVSGLIINYPLDDQDAIAVEAACTNVPALFLDVSDQTPINSIIFSHEDGTRLGVEHLVALGHQQIALLAGPLSSVSARLRLAGWHKYLTRNQIQPIAEREGDWSAMSGFQQTMQMLNEGIVPTAMLVANDQMALGAMRAITESGLRVGADISVVGYDDTEDSSCYIPPLTTIKQDFRLLGQTSVDRLLQLSQGQAVKGNQLLPVSLVKRKTTLAPNTQTASPRALADSLMQLARQVSRLESGQ”, the “total protein half-life in vivo” value by setting is: under setting [1], 5.83 ± 0.72 h; under setting [2], 5.64 ± 0.41 h; under setting [3], 4.55 ± 0.067 h; under setting [4], 4.85 ± 0.15 h; under setting [5], 4.13 ± 0.042 h; under setting [6], 2.96 ± 0.24 h. Also, the “total protein half-life in vivo” value reads like this: under setting [7], 5.81 ± 0.66 h; under setting [8], 7.63 ± 1.8 h; under setting [9], 5.01 ± 0.34 h; under setting [10], 7.759 ± 0.077 h; under setting [11], 4.77 ± 0.2 h; under setting [12], 10.5 ± 0.49 h.
For “MSLSRTQIVNWLTRCGDIFSTESEYLTGLDREIGDADHGLNMNRGFSKVVEKLPAIADKDIGFILKNTGMTLLSSVGGASGPLFGTFFIRAAQATQARQSLTLEELYQMFRDGADGVISRGKAEPGDKTMCDVWVPVVESLRQSSEQNLSVPVALEAASSIAESAAQSTITMQARKGRASYLGERSIGHQDPGATSVMFMMQMLALAAKE”, the “total protein half-life in vivo” value was determined as 4.62 ± 0.54 h under setting [1]; 4.25 ± 0.72 h under setting [2]; 4.36 ± 0.067 h under setting [3]; 4.75 ± 0.52 h under setting [4]; 4.23 ± 0.14 h under setting [5]; 2.93 ± 0.12 h under setting [6]. Besides, the “total protein half-life in vivo” value under setting [7] stood at 5.43 ± 0.13 h; the “total protein half-life in vivo” value under setting [8] stood at 9.74 ± 0.25 h; the “total protein half-life in vivo” value under setting [9] came to 4.432 ± 0.04 h; the “total protein half-life in vivo” value under setting [10] was 7.23 ± 0.11 h; the “total protein half-life in vivo” value under setting [11] was 4.75 ± 1.6 h; the “total protein half-life in vivo” value under setting [12] was 11.8 ± 0.41 h.
For “MQCALYDAGRCRSCQWIMQPIPEQLSAKTADLKNLLADFPVEEWCAPVSGPEQGFRNKAKMVVSGSVEKPLLGMLHRDGTPEDLCDCPLYPASFAPVFAALKPFIARAGLTPYNVARKRGELKYILLTESQSDGGMMLRFVLRSDTKLAQLRKALPWLHEQLPQLKVITVNIQPVHMAIMEGETEIYLTEQQALAERFNDVPLWIRPQSFFQTNPAVASQLYATARDWVRQLPVKHMWDLFCGVGGFGLHCATPDMQLTGIEIASEAIACAKQSAAELGLTRLQFQALDSTQFATAQGDVPELVLVNPPRRGIGKPLCDYLSTMAPRFIIYSSCNAQTMAKDIRELPGFRIERVQLFDMFPHTAHYEVLTLLVKQ”, the “total protein half-life in vivo” value stood at 5.35 ± 0.065 h under setting [1]; 3.16 h under setting [2]; 4.89 ± 0.31 h under setting [3]; 5.02 ± 0.69 h under setting [4]; 4.32 ± 0.3 h under setting [5]; 3.6 h under setting [6]. Moreover, the “total protein half-life in vivo” value is 5.35 ± 0.8 h under setting [7]; greater than 16 h under setting [8]; 5.51 h under setting [9]; 10.8 ± 1.5 h under setting [10]; 5.7 ± 0.55 h under setting [11]; 11.9 ± 1.2 h under setting [12].
Regarding “MASSGTTSTRKRFTGAEFIVHFLEQQGIKIVTGIPGGSILPVYDALSQSTQIRHILARHEQGAGFIAQGMARTDGKPAVCMACSGPGATNLVTAIADARLDSIPLICITGQVPASMIGTDAFQEVDTYGISIPITKHNYLVRHIEELPQVMSDAFRIAQSGRPGPVWIDIPKDVQTAVFEIETQPAMAEKAAAPAFSEESIRDAAAMINAAKRPVLYLGGGVINAPARVRELAEKAQLPTTMTLMALGMLPKAHPLSLGMLGMHGVRSTNYILQEADLLIVLGARFDDRAIGKTEQFCPNAKIIHVDIDRAELGKIKQPHVAIQADVDDVLAQLIPLVEAQPRAEWHQLVADLQREFPCPIPKACDPLSHYGLINAVAACVDDNAIITTDVGQHQMWTAQAYPLNRPRQWLTSGGLGTMGFGLPAAIGAALANPDRKVLCFSGDGSLMMNIQEMATASENQLDVKIILMNNEALGLVHQQQSLFYEQGVFAATYPGKINFMQIAAGFGLETCDLNNEADPQASLQEIINRPGPALIHVRIDAEEKVYPMVPPGAANTEMVGE”, the “total protein half-life in vivo” value under setting [1] amounted to 2.91 ± 0.088 h; the “total protein half-life in vivo” value under setting [2] amounted to 1.25 ± 0.025 h; the “total protein half-life in vivo” value under setting [3] was found to be 1.28 ± 0.21 h; the “total protein half-life in vivo” value under setting [4] was found to be 1.6 ± 0.46 h; the “total protein half-life in vivo” value under setting [5] is 1.43 ± 0.086 h; the “total protein half-life in vivo” value under setting [6] turned out to be 2.4 ± 0.39 h. For the same sequence, the “total protein half-life in vivo” value runs as follows: under setting [7], 2.86 ± 0.38 h; under setting [8], 4.64 ± 1.5 h; under setting [9], 1.4 ± 0.11 h; under setting [10], 2.49 h; under setting [11], 4.5 h; under setting [12], 8.65 ± 1.8 h.
Turning to “MKRKTLPLLALVATTLFLIACDDRSDDLKAISKFKDLTPPRFSDVVSHQDDVSEEWSQVDYLSGPTLQVLRTRQSPDGCEDGSYYYLVDMQEKTVQPLMNALCIADNIKLEYQEVTDPYTKEKYFEYAHDGKLMGQLLIPSNPDNQE”, under setting [7], the “total protein half-life in vivo” value was 1.71 h.
On to “MCELLGMSANVPTDICFSFTGLVQRGGGTGPHKDGWGITFYEGKGCRTFKDPQPSFNSPIAKLVQDYPIKSCSVVAHIRQANRGEVALENTHPFTRELWGRNWTYAHNGQLTGYKSLETGNFRPVGETDSEKAFCWLLHKLTQRYPRTPGNMAAVFKYIASLADELRQKGVFNMLLSDGRYVMAYCSTNLHWITRRAPFGVATLLDQDVEIDFSSQTTPNDVVTVIATQPLTGNETWQKIMPGEWRLFCLGERVV”, for which the “total protein half-life in vivo” value amounted to 6.35 ± 0.88 h under setting [1]; 5.84 ± 0.22 h under setting [2]; 5.68 ± 0.45 h under setting [3]; 6.32 ± 0.5 h under setting [4]; 5.67 ± 0.13 h under setting [5]; 3.37 ± 0.54 h under setting [6]. Besides, the “total protein half-life in vivo” value under setting [7] came to 6.2 ± 0.066 h; the “total protein half-life in vivo” value under setting [8] was determined as 12.6 ± 1.6 h; the “total protein half-life in vivo” value under setting [9] amounted to 5.695 ± 0.045 h; the “total protein half-life in vivo” value under setting [10] stood at 12.2 ± 1.4 h; the “total protein half-life in vivo” value under setting [11] was 5.83 ± 0.3 h; the “total protein half-life in vivo” value under setting [12] was found to be 12.5 ± 0.73 h.
Take “MVRKGCNSLVRAEKILTHIAWVGMASYMELLNKFQYPKSSLLNLLNVMVDCGFLIKNKNGYYSLGIKNYELGCQALHRQNIFEVTKRPMQELSLKSGLVCHLGAMESISAIYLDKIESPDSVPTSKSWIGKKLELHITALGKALLAWKTREELDYFLEALTLTPHTRNTFTDKKLFLEELQKTRLRGWAIDNEESTYGAVCLSMPVFNMYNRVNYAISLSGDPVVYSGNKIDSYLELLRKCAEQISYGLGYRNENEHLRKGN”: the “total protein half-life in vivo” value turned out to be 1.15 h under setting [6], 1.6 ± 0.092 h under setting [7], 2.7 ± 0.086 h under setting [8] and 3.16 h under setting [10].
